Experiments:
[1] = target: SARS-COV-2 Wuhan Reference RBD (SARS-CoV-2, UniProt P0DTC2 319-541)
[2] = target: recombinant SARS-CoV-2 RBD with C-terminal AviTag (SARS-CoV-2, UniProt P0DTC2 319-541); experiment: BLI, biotinylated RBD on streptavidin biosensors; OR: over-range

B1: PP788 (VHH, not shown: large carriers; small tags and cut ends)
VHH: QVQLVESGGGLVQPGGSLRLSCAASGSIESINAIHWFRQAPGKAREEVAAITENDVDYYADSVKGRFTISRDNAKNTVYLQMNSLKPEDTAVYYCASLSSGYQYVGFRYWGQGTQVTVSS
[1]
  EC50: 1.56 nM

B2: PP806 MBP-R2B-E6-H6 (VHH)
VHH: QVQLVESGGGLVQPGGSLRLSCAASGGVTRGNAMAWYRQAPGKQREIVAAIDNGGSHAYGDSVKGRFTISRDNAKNTVYLQMNSLKPEDTAVYYCAVFPDHDSEQASIDRVYWGQGTQVTVSS
notes: Form: Monomer
[2]
  Kd: ~1400 nM

Source: patent US20240150440A1 (LUMEN BIOSCIENCE, published 2024)
